Test results from the Human Domainome abundance scans (Beltran et al. 2025).
± gives the uncertainty stated by the source.

B1: POU domain, class 3, transcription factor 3, residues 408 to 463; numbered along this chain, P20264 (parent)
chain: KKRTSIEVSVKGALESHFLKCPKPSAQEITNLADSLQLEKEVVRVWFCNRRQKEKR

Variants of: B1
Test: abundance fitness (aPCA) (normalised: wild type 0, dead -1); higher = more abundant; growth selection in yeast, the domain comes from the species named
Settings: Homo sapiens

Point of comparison: KKRTSIEVSVKGALESHFLKCPKPSAQDITNLADSLQLEKEVVRVWFCNRRQKEKR [E28D], abundance fitness -0.256 ± 0.15. Against it:
- KKRTEIEVSVKGALESHFLKCPKPSAQEITNLADSLQLEKEVVRVWFCNRRQKEKR [S5E] — within error, -0.047 ± 0.1
- SKRTSIEVSVKGALESHFLKCPKPSAQEITNLADSLQLEKEVVRVWFCNRRQKEKR [K1S] — within error, -0.154 ± 0.14
- KKRTSIEVSVKGALESHFLKCPKPSAQEITNLADSLQLEKEVVRVWFCNRRQKEHR [K55H] — within error, -0.122 ± 0.19
- KKRTSIEVSVKGALESHFLKCPKPSAQEITNLADSLQLEKEVVRVWFCNRRQKETR [K55T] — within error, -0.095 ± 0.099
- KKRTSIEVSVKGALESHFLKCPKPSAQEITNLADSLQLEKEVVRVWFCNRRQKERR [K55R] — within error, -0.089 ± 0.075
- KKRTSIEVSVKGALESHFLKCPKPSAQEITNLADSLQLEKEVVRVWFCNRRQKEWR [K55W] — within error, -0.129 ± 0.12
- KKRTSIEVSVKGALESHFLKCPKPSAQEITNLADSLQLEKEVVRVWFCNRRQKEFR [K55F] — within error, -0.312 ± 0.17
- KKRTSIEVSVKGALESHFLVCPKPSAQEITNLADSLQLEKEVVRVWFCNRRQKEKR [K20V] — within error, -0.127 ± 0.089
- KKRTSIEVSVKGALESHFLFCPKPSAQEITNLADSLQLEKEVVRVWFCNRRQKEKR [K20F] — within error, -0.438 ± 0.12
- KKRTSIEVSVKGALESHFLHCPKPSAQEITNLADSLQLEKEVVRVWFCNRRQKEKR [K20H] — within error, -0.279 ± 0.14
- KKRTSIEVSVKGALESYFLKCPKPSAQEITNLADSLQLEKEVVRVWFCNRRQKEKR [H17Y] — higher, 0.041 ± 0.11
- KKRTSIEVSVKGALESSFLKCPKPSAQEITNLADSLQLEKEVVRVWFCNRRQKEKR [H17S] — within error, -0.039 ± 0.085
- KKRTSIEVSVKGALESIFLKCPKPSAQEITNLADSLQLEKEVVRVWFCNRRQKEKR [H17I] — within error, -0.219 ± 0.14
- KKRTSIEVSVKGALESHFLKCPKPSAQEITNLADSLQLECEVVRVWFCNRRQKEKR [K40C] — within error, -0.038 ± 0.1
- KKRTSIEVSVKGALESHFLKCPKPSAQEITNLADSLQLEEEVVRVWFCNRRQKEKR [K40E] — higher, 0.077 ± 0.11
- KKRTSIEVSVKGALESHFLKCPKPSAQEITNLADSFQLEKEVVRVWFCNRRQKEKR [L36F] — within error, -0.177 ± 0.11
- KKRTSIEVSVKGALESHFLKCPKPSAQEITNLADSVQLEKEVVRVWFCNRRQKEKR [L36V] — lower, -0.522 ± 0.07
- KKRTSIEVSVKGALESHFLKCPKPSAQEITNLADSQQLEKEVVRVWFCNRRQKEKR [L36Q] — lower, -0.812 ± 0.13
- KKRTSIEVSVKGALESHFLKCPKPSAQEITNLADSDQLEKEVVRVWFCNRRQKEKR [L36D] — lower, -1.02 ± 0.16
- KKRTSDEVSVKGALESHFLKCPKPSAQEITNLADSLQLEKEVVRVWFCNRRQKEKR [I6D] — within error, -0.135 ± 0.12
- KKRTSGEVSVKGALESHFLKCPKPSAQEITNLADSLQLEKEVVRVWFCNRRQKEKR [I6G] — within error, -0.071 ± 0.071
- KKRTSIEVSVKGALESHFLKCPKPSAQEITNLADSLQLEKEVVRVWFCNRLQKEKR [R51L] — higher, -0.005 ± 0.079
- KKRTSIEVSVKGALESHFLKCPKPSAQEITNLADSLQLEKEVVRVWFCNRWQKEKR [R51W] — higher, 0.018 ± 0.081
- KKRTSIEVSVKGALESHFLKCPKPSAQEITNLADSLQLEKEVVRVWFCNREQKEKR [R51E] — within error, -0.126 ± 0.092
- KKRTSIEVSVKGALESHFLKCPKPSAQEITNLADSLQLEKEVVRVWFCNRFQKEKR [R51F] — within error, -0.385 ± 0.23
- KKRTSIEVSVKGALESHFLKCPKPSAQEITNLADSLQLEKEVWRVWFCNRRQKEKR [V43W] — lower, -0.994 ± 0.13
- KKRTSIEVSVKGALESHFLKCPKPSAQEITNLADSLQLEKEVSRVWFCNRRQKEKR [V43S] — lower, -0.926 ± 0.12
- KKRTSIEVSVKGALESHFLKCPKPSAQEITNLADSLQLEKEVHRVWFCNRRQKEKR [V43H] — lower, -0.673 ± 0.2
- KKRTSIEVSVKGALESHFLKCPKPSAQEIANLADSLQLEKEVVRVWFCNRRQKEKR [T30A] — higher, -0.028 ± 0.077
- KKRTSIEVSVKGALESHFLKCPKPSAQEITNLADSLQLEKEVVRVWFRNRRQKEKR [C48R] — higher, 0.035 ± 0.062
- KKRTSIEVSVKGALESHFLKCPKPSAQVITNLADSLQLEKEVVRVWFCNRRQKEKR [E28V] — within error, -0.442 ± 0.084
- KKRTSIEVSVKGALESHFLKCPKPSAQNITNLADSLQLEKEVVRVWFCNRRQKEKR [E28N] — within error, -0.455 ± 0.19
- KKRTSIEVSVKGALESHFLKCPKPSAQEITNLADSLQLEKEVVRVWFCNNRQKEKR [R50N] — lower, -0.919 ± 0.22
- KKRTSIEVSVKGALESHFLKCPSPSAQEITNLADSLQLEKEVVRVWFCNRRQKEKR [K23S] — higher, 0.033 ± 0.069
- KKRTSIEVSVKGALESHFLKCPWPSAQEITNLADSLQLEKEVVRVWFCNRRQKEKR [K23W] — within error, -0.084 ± 0.077
- KKRTSIEVSVKGALESHFLKCPNPSAQEITNLADSLQLEKEVVRVWFCNRRQKEKR [K23N] — higher, 0.248 ± 0.11
- KKRTSIEVSVKGALESHFLKCPKASAQEITNLADSLQLEKEVVRVWFCNRRQKEKR [P24A] — lower, -0.778 ± 0.14
- KKRTSIEVSVKGALESHFLKCPKTSAQEITNLADSLQLEKEVVRVWFCNRRQKEKR [P24T] — lower, -0.825 ± 0.24
- KKRTSIEVSVKGALESHFLKCPKPSAKEITNLADSLQLEKEVVRVWFCNRRQKEKR [Q27K] — within error, -0.095 ± 0.11
- KKRTSIEVSVKGALESHFLKCPKPSAIEITNLADSLQLEKEVVRVWFCNRRQKEKR [Q27I] — within error, -0.312 ± 0.16
- KKRTSIEVSVKGALESHFLKCPKPSAMEITNLADSLQLEKEVVRVWFCNRRQKEKR [Q27M] — within error, -0.194 ± 0.1
- KKRTSIEVSVKGALESHFLKCPKPSAQEITNLANSLQLEKEVVRVWFCNRRQKEKR [D34N] — higher, 0.143 ± 0.12
- KKRTSIEVSVKGALESHFLKCPKPSAQEITNLKDSLQLEKEVVRVWFCNRRQKEKR [A33K] — lower, -0.981 ± 0.19
- KKRTSIEVSVKGALESHFLKTPKPSAQEITNLADSLQLEKEVVRVWFCNRRQKEKR [C21T] — within error, -0.094 ± 0.1
- KKRTSIEVSQKGALESHFLKCPKPSAQEITNLADSLQLEKEVVRVWFCNRRQKEKR [V10Q] — higher, 0.07 ± 0.13
- KKRTSIEVSYKGALESHFLKCPKPSAQEITNLADSLQLEKEVVRVWFCNRRQKEKR [V10Y] — within error, -0.129 ± 0.2
